Measured values from patent publication US11360100B2, “Methods and compositions useful in detecting proteins” (OREGON HEALTH & SCIENCE UNIVERSITY, priority 2016, dated 2022).
Entries after “also recorded” stand apart in the source; their conditions may differ. AF647 = AlexaFluor 647; Cy5 = Cy5 cyanine dye

Tests used:
untagged EGFP-TM = experiment: Flow cytometry of probe labeling, live U-2 OS cells expressing untagged EGFP-TM; assay type: cell-based, human; settings: 500 nM probe
Method: (§1) The in vitro results were translated to living cells. Flow cytometry was used to evaluate protein labeling in live human osteosarcoma (U-2 OS) cells expressing CoilZ-EGFP-TM, CoilY-EGFP-TM, or untagged EGFP-TM (FIG. 11). Cells were treated with 500 nM AF647-conjugated probe peptide before analysis, and we gated for EGFP-expressing cells. […] Non-specific labeling of untagged EGFP-TM and homodimerization with CoilY-EGFP-TM were minimal for cells exposed to CoilY-AF647. Cells expressing CoilY-EGFP-TM were labeled with CoilZ-AF647, but with only a 4-fold enhancement.
Protein labeling was assessed as a function of CoilY-AF647 concentration (FIG. 25). Live cells expressing CoilZ-EGFP-TM or untagged EGFP-TM were treated with a range of CoilY-AF647 concentrations (50 nM to 1000 nM for 30 min at room temperature). […] Cells had 21- to 44-fold higher median fluorescence compared to cells expressing untagged protein. Treatment with 300 nM AF647-CoilY gave optimal labeling, with 98% of cells labeled and a 35-fold increase in AF647 fluorescence. Treatment with an excess of probe peptide (i.e., 1000 nM) enhanced the AF647 signal, but at the cost of a small increase in non-specific labeling.

CoilZ-EGFP-TM = experiment: Flow cytometry of probe labeling, live U-2 OS cells expressing CoilZ-EGFP-TM; assay type: cell-based, human
Text: (§2) Cells were gated for green fluorescence and analyzed for labeling with CoilY-AF647 (A) or CoilZ-AF647 (B). Transfected cells expressed CoilZ-EGFP-TM (green), CoilY-EGFP-TM (blue), or untagged EGFP-TM (gray). Values in bold indicate the median AF647 fluorescence for each cell population.
FIGS. 25A and 25B provide flow analysis of cells treated with CoilY-AF647. In FIG. 25A U-2 OS cells were transfected with EGFP-TM or CoilZ-EGFP-TM and treated with increasing concentrations of CoilY-AF647. Single, live, green fluorescent cells expressing untagged (left) or tagged (right) EGFP-TM were counted and analyzed for labeling without probe peptide (0 nM) or with CoilY-AF647 (50, 100, 300, 500, 750, or 1000 nM). Values within each histogram indicate the median AF647 fluorescence for each cell population. Data analyzed included between 26,000 and 35,000 live, singlet GFP+ cells.
The in vitro results were translated to living cells. Flow cytometry was used to evaluate protein labeling in live human osteosarcoma (U-2 OS) cells expressing CoilZ-EGFP-TM, CoilY-EGFP-TM, or untagged EGFP-TM (FIG. 11). […]
Protein labeling was assessed as a function of CoilY-AF647 concentration (FIG. 25). […] Cells had 21- to 44-fold higher median fluorescence compared to cells expressing untagged protein. Treatment with 300 nM AF647-CoilY gave optimal labeling, with 98% of cells labeled and a 35-fold increase in AF647 fluorescence. […]

[1] = system: untagged GFP/EGFP and mCherry; experiment: Fluorescence microscopy, cells expressing untagged fluorescent proteins; assay type: cell-based, human
Method: (§3) Fluorescence microscopy was used to confirm that the VIP Y/Z tag set enabled selective fluorescent labeling of proteins (FIGS. 3A and 3B). CoilZ was expressed by fusion to a cell-surface localized variant of GFP (CoilZ-GFP; pDisplay vector). […] Labeling was rapid (<30 min), target-specific, and live-cell compatible. Homodimerization between a CoilZ probe peptide and CoilZ-GFP was not observed. Cells expressing untagged GFP were not labeled with the CoilY probe peptide. CoilY was also expressed fused to the cell surface localized GFP and visualized using a CoilZ-AF647 probe peptide (FIG. 3B). No homodimerization of CoilY was observed, and the labeling was specific.
(§4) It was next confirmed that the VIP Y/Z tag set could be used in two-target imaging in fixed cells (FIGS. 5B and 13). A combination of cell lines singly-transfected with mCherry, GFP, CoilY-mCherry, or CoilZ-GFP was used, as illustrated in FIG. 9. […] Then we labeled two tagged FPs in one sample using a mixed population of cells expressing either CoilY-mCherry or CoilZ-GFP.
(§5) The disclosed methods were tested in transfected human osteosarcoma cells (U-2 OS). A pDisplay vector was used to target CoilZ-EGFP and untagged EGFP to the cell surface. This construct includes a C-terminal fusion to the transmembrane domain of the platelet derived growth factor receptor. As expected, both CoilZ-EGFP and untagged EGFP localized to the cell surface, and green fluorescence was observed within 24 h of transfection. Then the cells were blocked with 6% BSA and 10% FBS for 30 minutes at 37° C. and then contacted with an AF647-conjugated CoilY probe (CoilY-AF647), 30 min at 4° C. Cells were fixed before imaging by confocal fluorescence microscopy. The probe peptides are membrane impermeant; only cell-surface EGFP was accessible to CoilY-AF647 for labeling. Colocalization of green fluorescent CoilZ-EGFP with CoilY-AF647 was observed.
The CoilY/CoilZ tag set is bidirectional—either CoilZ or CoilY can serve as the probe peptide. CoilY-EGFP was expressed on the surface of U2OS cells and labeled with CoilZ-AF647. […]

CoilY-EGFP = experiment: Fluorescence microscopy labeling of cell-surface CoilY-GFP (CoilY-EGFP); assay type: cell-based, human; settings: fluorescence microscopy
Method: as §3
The CoilY/CoilZ tag set is bidirectional—either CoilZ or CoilY can serve as the probe peptide. CoilY-EGFP was expressed on the surface of U2OS cells and labeled with CoilZ-AF647. Protein labeling was rapid (<30 min) and specific; non-specific labeling of untagged EGFP was not observed. Homodimerization was not observed for either CoilZ-AF647 with CoilZ-EGFP or CoilY-AF647 with CoilY-EGFP (FIG. 3B).
(§6) The CoilY/CoilZ tag set is also compatible with live-cell imaging. CoilZ-EGFP was contacted with CoilY-AF647 in live U2OS cells. […] Homodimerization was not observed for CoilY-EGFP incubated with CoilY-AF647. Non-specific labeling of untagged GFP was not observed (FIG. 26). Cells internalize labeled targets over time. CoilZ-GFP and CoilY-AF647 co-localization was observed on the surface and in endocytic vesicles due to rapid internalization, and AF647 signal accumulated inside cells during a 40 min. long incubation at room temperature (FIG. 12).

CoilZ-EGFP = experiment: Fluorescence microscopy labeling of cell-surface CoilZ-GFP (CoilZ-EGFP); assay type: cell-based, human
Method: as §3, §4, §5, §6
The VIPY/Z tag set can be used to label multiple protein targets simultaneously. Cells expressing CoilY-mCherry were combined with those expressing CoilZ-EGFP-pDisplay (FIG. 9). This mixed cell population, as well as unmixed CoilZ-GFP, CoilY-mCherry, and untagged controls, were plated for imaging. […] Fluorescence was detected by confocal fluorescence imaging. […]

CoilY-EGFP-TM = experiment: Flow cytometry of probe labeling, live U-2 OS cells expressing CoilY-EGFP-TM; assay type: cell-based, human; settings: 500 nM probe
Text: as §2, §1

CoilY-mCherry [2] = experiment: Two-target fluorescence imaging, cells expressing CoilY-mCherry; assay type: cell-based; settings: fluorescence microscopy
Text: as §4
The VIPY/Z tag set can be used to label multiple protein targets simultaneously. Cells expressing CoilY-mCherry were combined with those expressing CoilZ-EGFP-pDisplay (FIG. 9). This mixed cell population, as well as unmixed CoilZ-GFP, CoilY-mCherry, and untagged controls, were plated for imaging. After blocking for 30 minutes at 37° C. with 6% BSA, 10% FBS, cells were treated at 4° C. with 500 nM CoilZ-biotin for 15 min and then 500 nM CoilY-AF647 for 15 min. […] Cells were then fixed, blocked for 1 hour with 6% BSA, 10% FBS and treated with Qdot565-conjugated streptavidin in order to label CoilZ-biotin. Fluorescence was detected by confocal fluorescence imaging. […] So the CoilY/Z tag set can be used to image up to four proteins at once.

untagged TfR1 = target: T1, untagged TfR1 (Homo sapiens, UniProt P02786); experiment: CoilR probe labeling of CHO TRVb cells expressing untagged TfR1; assay type: cell-based; settings: labeled at 4° C.
T1 construct: expressed in transfected cells; host or cells: CHO TRVb
T1 sequence (P02786 whole entry): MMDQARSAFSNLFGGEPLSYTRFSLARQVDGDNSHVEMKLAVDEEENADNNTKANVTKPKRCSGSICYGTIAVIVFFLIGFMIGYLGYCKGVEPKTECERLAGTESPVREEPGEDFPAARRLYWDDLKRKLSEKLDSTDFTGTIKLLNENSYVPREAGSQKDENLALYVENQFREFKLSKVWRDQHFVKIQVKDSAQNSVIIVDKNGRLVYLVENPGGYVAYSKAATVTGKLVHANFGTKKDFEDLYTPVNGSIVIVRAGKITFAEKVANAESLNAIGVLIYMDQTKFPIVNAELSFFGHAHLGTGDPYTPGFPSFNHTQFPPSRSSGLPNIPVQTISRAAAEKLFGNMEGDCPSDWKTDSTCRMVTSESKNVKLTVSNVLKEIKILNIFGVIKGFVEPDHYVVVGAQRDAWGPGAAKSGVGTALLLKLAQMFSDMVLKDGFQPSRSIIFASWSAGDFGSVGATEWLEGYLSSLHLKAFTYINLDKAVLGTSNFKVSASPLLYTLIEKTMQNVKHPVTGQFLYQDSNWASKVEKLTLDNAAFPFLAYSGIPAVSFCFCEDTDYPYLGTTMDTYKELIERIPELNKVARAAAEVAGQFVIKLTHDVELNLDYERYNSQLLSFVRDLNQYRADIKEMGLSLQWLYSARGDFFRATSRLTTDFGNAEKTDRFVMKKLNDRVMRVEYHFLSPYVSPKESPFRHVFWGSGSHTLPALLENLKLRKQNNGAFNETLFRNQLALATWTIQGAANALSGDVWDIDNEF

[3] = system: untagged mEmerald constructs; experiment: VIPER labeling of fixed, permeabilized U-2 OS cells, untagged constructs; assay type: cell-based; settings: 100 nM probe, same acquisition settings
Method: The CoilE and CoilR peptides were assessed for their ability to label intracellular structures without perturbing normal trafficking and distribution of the tagged proteins. U-2 OS cells were transfected with mEmerald-actin-C18, mEmerald-CoilE-actin-C18, H2B-6-mEmerald, H2B-6-CoilE-mEmerald, Mito-7-mEmerald, and Mito-7-CoilE-mEmerald and fixed with 4% PFA 24 hours after transfection. Cells were then lightly permeabilized and then labeled with 100 nM CoilR-Cy5 in a blocking buffer. Cells were fixed and imaged using with line-scanning confocal microscope. […] VIPER labeling was specific, given by the colocalization of features between the VIPER(Cy5) and mEmerald signal.

CoilY-mCherry [4] = experiment: SDS-PAGE/PVDF membrane labeling of transfected HEK293FT lysates, CoilY-mCherry; assay type: binding; settings: cell lysates, SDS-PAGE, PVDF membrane
Method: The CoilY and CoilZ pair could be used to label two protein targets simultaneously. Transfected HEK293FT cell lysates from cells expressing mCherry, CoilY-mCherry, EGFP, or CoilZ-EGFP were resolved by SDS-PAGE and transferred to a PVDF membrane. The membrane was incubated sequentially with CoilZ-fluorescein and CoilY-rhodamine before imaging. GFP and mCherry fluorescence was not preserved due to SDS-PAGE protein denaturation.
(§7) A protein gel-based assay was optimized for analyzing VIP tags in vitro. Cell lysates were made from cells transfected with mCherry, CoilY-mCherry, GFP, or CoilZ-GFP, resolved by SDS-PAGE, and transferred to a membrane. GFP and mCherry fluorescence were not preserved in this experiment. The membrane was then contacted with CoilZ-fluorescein and CoilY-rhodamine before imaging. […] The probe peptides were specific for each tagged protein, and this single pair enabled specific and selective protein tagging of two distinct targets. In addition both the VIP E/R and VIP Y/Z tag sets could be used concurrently to label two recombinant proteins (DHFR and mCherry) without crosstalk (FIG. 23).

[5] = system: untagged mCherry and DHFR; experiment: SDS-PAGE/PVDF membrane labeling, untagged proteins; assay type: binding; settings: lysates and purified proteins, PVDF membrane
Method: Crude lysates (lys.) and purified proteins (serial dilutions) were resolved by SDS-PAGE. Lysates were prepared from HERK 293FT cells transfected with mCherry, CoilY-mCherry, DHFR, and CoilE-DHFR. The protein gel was transferred to a PVDF membrane and then incubated with CoilZ-Fluorescein and CoilR-rhodamine. After washing, the membrane was imaged to detect VIPER labeling of DHFR (red) and VIP Y/Z labeling of mCherry (green). Untagged proteins were not labeled by either CoilR-rhodamine or CoilZ-fluorescein.
as §7

His6-CoilY-mCherry = experiment: Detection limit comparison on PVDF membrane (peptide vs immunolabeling); assay type: binding; settings: serial dilutions 400 ng to 0.8 ng
Method: FIG. 10 is a detection limit comparison between peptide and immunolabeling. Serial dilutions of CoilY-mCherry (400 ng to 0.8 ng) were run on two identical SDS-PAGE gels before transfer to a PVDF membrane. The first membrane (top) was treated with CoilZ-fluorescein (CoilZ-FL) and imaged (ex 475/42 nm; em 537/35 nm). The second membrane (bottom) was labeled using an AF488-conjugated anti-His antibody “AF488-His” (QIAGEN, product number 35310) and imaged (475/42 nm excitation, 537/35 nm emission).
The disclosed method is a sensitive alternative to fluorescent immunoblotting. Purified His6-CoilY-mCherry was generated and the sensitivity of detection of the His6-CoilY-mCherry using our CoilZ-fluorescein was compared to that of an AF488-labeled anti-His antibody from Qiagen. CoilZ-fluorescein could detect as little as 3 ng of His6-CoilY-mCherry, while the antibody required 8-fold more target protein (FIG. 10).
Specifically, purified His6-mCherry and His6-CoilY-mCherry were loaded on a 10% SDS-PAGE gel for separation. Electrophoresis occurred at 165 V for 1 h. […]
Decreasing quantities of purified CoilY-mCherry (400 ng to 0.8 ng) were resolved by SDS-PAGE and transferred to a PVDF membrane. […] CoilY-mCherry was detected by blotting with anti-pentahistidine mouse antibody conjugated to AlexaFluor488 (1:5000, QIAGEN; product number 35310). […]

B1: CoilY-AF647: CoilY probe peptide conjugated to AlexaFluor 647 (conjugate)
peptide: MGSSNTVKELKNYIQELEERNAELKNLKEHLKFAKAELEFELAAHKFEGGGAAAC(AF647)LGKLAAALEHHHHHH
modifications: not fully specified
non-specific labeling of untagged EGFP-TM (untagged EGFP-TM): minimal
cells labeled (CoilZ-EGFP-TM; 300 nM probe): 98%
enhancement of protein labeling (AF647 fluorescence) (CoilZ-EGFP-TM; 500 nM probe, live U-2 OS, gated for EGFP): greater than 40 fold
non-specific labeling of untagged fluorescent proteins [1]: did not interact; also recorded: No CoilY-AF647 labeling was detected; also recorded: not observed
homodimerization of CoilY probe with CoilY-GFP/EGFP (CoilY-EGFP): not observed
labeling time (rapid) (CoilZ-EGFP; cell-surface CoilZ-GFP/EGFP, live-cell compatible): < 30 min
labeling of CoilZ-GFP/EGFP (specificity, colocalization) (CoilZ-EGFP; fluorescence microscopy): target-specific; also recorded: labeled; also recorded: Colocalization; also recorded: specifically label
homodimerization with CoilY-EGFP-TM (CoilY-EGFP-TM): minimal
homodimerization / cross-reactivity of CoilY probe with CoilY-mCherry (CoilY-mCherry [2]): not observed; also recorded: no cross-reactivity

B2: CoilR-Cy5: CoilR probe peptide conjugated to Cy5 (conjugate)
peptide: MGGSLEIRAAFLRQRNTALRTEVAELEQEVQRLENEVSQYETRYGPLGGGAAALGC(Cy5)LAAALEHHHHHH
labeling of cells expressing untagged TfR1 (untagged TfR1): no CoilR-Cy5 signal; also recorded: showed now labeling
Cy5 signal in cells expressing untagged mEmerald constructs [3]: no significant Cy5 signal

B3: CoilZ-fluorescein: green fluorescent CoilZ probe peptide, maleimide conjugate (conjugate)
peptide: MGSSQKVAQLKNRVAYKLKENAKLENIVARLENDNANLEKDIANLEKDIANLERDVARGGGAAACLGKLAAALEHHHHHH
probe peptide binding to CoilY-mCherry on membrane (CoilY-mCherry [4]): specific coiled-coil heterodimer formation could be detected; also recorded: Probe peptide binding was detected
labeling of untagged proteins on membrane [5]: not labeled
least amount of His6-CoilY-mCherry detected (His6-CoilY-mCherry): 3 ng
